In patent publication US20130266579A1 one finds fold increase of tumor DL755 signal over 7 days, EC50 for Cell Growth Inhibition (CGI), Keratinocyte (HEK-N) cells and EC50 for Cell Growth Inhibition (CGI), A431 cells data, which are given here for three substances.

In experiment [1] the target is human epidermal growth factor receptor (EGFR) on cells and tissues (human) (UniProt P00533). Kind of experiment: in vivo fluorescence imaging.
Experiment [2] addresses human epidermal growth factor receptor (EGFR) (human) (UniProt P00533). The experiment is described as follows: cell-based or functional assay.

Substance control Human IgG (antibody) gave a fold increase of tumor DL755 signal over 7 days in experiment [1] of 3 fold. Substance Saporin conjugated Y104D returned an EC50 for Cell Growth Inhibition (CGI), Keratinocyte (HEK-N) cells in experiment [2] of 0.0158 µg/mL. Consider Saporin conjugated Y104D/Q111P, for which, in experiment [2], the EC50 for Cell Growth Inhibition (CGI), A431 cells is 0.0024 µg/mL and the EC50 for Cell Growth Inhibition (CGI), Keratinocyte (HEK-N) cells amounted to 0.0225 µg/mL.
